Source: US20210130431A1 (published 2021)

Assays:
[1] = target: T1, TCL1 70-79, alanine replacement at position 2 peptide on HLA-A*02:01 (human); test: cytokine release
T1 peptide: SALPIMWQLY

[2] = target: T2, TCL1 70-79, glycine replacement at position 8 peptide on HLA-A*02:01 (human); test: cytokine release
T2 peptide: SLLPIMWGLY

[3] = target: T3, TCL1 70-79, glycine replacement at position 1 peptide on HLA-A*02:01 (human); test: cytokine release
T3 peptide: GLLPIMWQLY

[4] = target: T4, TCL1 70-79, glycine replacement at position 2 peptide on HLA-A*02:01 (human); test: cytokine release
T4 peptide: SGLPIMWQLY

[5] = target: T5, TCL1 70-79, alanine replacement at position 4 peptide on HLA-A*02:01 (human); test: cytokine release
T5 peptide: SLLAIMWQLY

[6] = target: T6, TCL1 70-79, alanine replacement at position 10 peptide on HLA-A*02:01 (human); test: cytokine release
T6 peptide: SLLPIMWQLA

[7] = target: T7, TCL1 70-79, alanine replacement at position 3 peptide on HLA-A*02:01 (human); test: cytokine release
T7 peptide: SLAPIMWQLY

[8] = target: T8, TCL1 70-79, glycine replacement at position 3 peptide on HLA-A*02:01 (human); test: cytokine release
T8 peptide: SLGPIMWQLY

[9] = target: T9, TCL1 70-79, alanine replacement at position 5 peptide on HLA-A*02:01 (human); test: cytokine release
T9 peptide: SLLPAMWQLY

[10] = target: T10, TCL1 70-79, glycine replacement at position 9 peptide on HLA-A*02:01 (human); test: cytokine release
T10 peptide: SLLPIMWQGY

[11] = target: T11, TCL1 70-79, alanine replacement at position 8 peptide on HLA-A*02:01 (human); test: cytokine release
T11 peptide: SLLPIMWALY

[12] = target: T12, TCL1 70-79, glycine replacement at position 6 peptide on HLA-A*02:01 (human); test: cytokine release
T12 peptide: SLLPIGWQLY

[13] = target: T13, TCL1 70-79, glycine replacement at position 10 peptide on HLA-A*02:01 (human); test: cytokine release
T13 peptide: SLLPIMWQLG

[14] = target: T14, TCL1 70-79, alanine replacement at position 7 peptide on HLA-A*02:01 (human); test: cytokine release
T14 peptide: SLLPIMAQLY

[15] = target: T15, TCL1 70-79, alanine replacement at position 9 peptide on HLA-A*02:01 (human); test: cytokine release
T15 peptide: SLLPIMWQAY

[16] = target: T16, TCL1 70-79, alanine replacement at position 6 peptide on HLA-A*02:01 (human); test: cytokine release
T16 peptide: SLLPIAWQLY

[17] = target: T17, TCL1 70-79, alanine replacement at position 1 peptide on HLA-A*02:01 (human); test: cytokine release
T17 peptide: ALLPIMWQLY

[18] = target: T18, TCL1 70-79, glycine replacement at position 4 peptide on HLA-A*02:01 (human); test: cytokine release
T18 peptide: SLLGIMWQLY

[19] = target: T19, TCL1 70-79, glycine replacement at position 5 peptide on HLA-A*02:01 (human); test: cytokine release
T19 peptide: SLLPGMWQLY

[20] = target: T20, TCL1 70-79, glycine replacement at position 7 peptide on HLA-A*02:01 (human); test: cytokine release
T20 peptide: SLLPIMGQLY

[21] = target: T21, TCL1 peptide on HLA-A*02:01 (human); test: multimer staining
T21 peptide: SLLPIMWQLY

binding result [1]: no recognition
binding result [2]: no recognition
binding result [3]: recognises
binding result [4]: no recognition
binding result [5]: no recognition
binding result [6]: recognises
binding result [7]: no recognition
binding result [8]: no recognition
binding result [9]: no recognition
binding result [10]: no recognition
binding result [11]: no recognition
binding result [12]: no recognition
binding result [13]: recognises
binding result [14]: no recognition
binding result [15]: no recognition
binding result [16]: no recognition
binding result [17]: recognises
binding result [18]: no recognition
binding result [19]: no recognition
binding result [20]: no recognition
binding result [21]: recognises
B1: TCL1-TCR (TCR, V domains shown)
Valpha: GQSLEQPSEVTAVEGAIVQINCTYQTSGFYGLSWYQQHDGGAPTFLSYNGLDGLEETGRFSSFLSRSDSYGYLLLQELQMKDSASYFCLLGSGAGSYQLTFGKGTKLSVIP
Vbeta: DAGVTQSPTHLIKTRGQHVTLRCSPISGHKSVSWYQQVLGQGPQFIFQYYEKEERGRGNFPDRFSARQFPNYSSELNVNALLLGDSALYLCASSFTDGGTYEQYFGPGTRLTVT
